Measurements from article PMC9482650, “Quantitative fragmentomics allow affinity mapping of interactomes” (Nature Communications, 2022).

T1: APBA2_2, Q99767
T1 sequence (Q99767 654-744, limits assumed, looked up): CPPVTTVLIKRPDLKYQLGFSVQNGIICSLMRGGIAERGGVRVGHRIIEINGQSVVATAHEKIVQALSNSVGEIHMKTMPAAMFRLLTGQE

T2: GRIP1_4, Q9Y3R0
T2 sequence (Q9Y3R0 467-571, limits assumed, looked up): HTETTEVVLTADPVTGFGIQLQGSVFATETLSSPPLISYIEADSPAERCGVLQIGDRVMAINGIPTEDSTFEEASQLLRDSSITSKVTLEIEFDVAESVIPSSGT

T3: LRRC7, Q96NW7
T3 sequence (Q96NW7 1440-1537, limits assumed, looked up): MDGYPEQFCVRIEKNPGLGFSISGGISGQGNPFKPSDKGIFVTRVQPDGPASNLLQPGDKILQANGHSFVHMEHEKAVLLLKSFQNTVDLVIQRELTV

T4: MPDZ_5, O75970
T4 sequence (O75970 695-796, limits assumed, looked up): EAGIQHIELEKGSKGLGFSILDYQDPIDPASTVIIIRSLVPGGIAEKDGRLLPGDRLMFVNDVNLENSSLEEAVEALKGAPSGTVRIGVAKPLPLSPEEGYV

T5: MPP2, Q14168
T5 sequence (Q14168 180-250, limits assumed, looked up): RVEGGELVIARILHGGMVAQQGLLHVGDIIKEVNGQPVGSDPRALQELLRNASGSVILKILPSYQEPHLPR

T6: MPP6, Q9NZW5
T6 sequence (Q9NZW5 125-219, limits assumed, looked up): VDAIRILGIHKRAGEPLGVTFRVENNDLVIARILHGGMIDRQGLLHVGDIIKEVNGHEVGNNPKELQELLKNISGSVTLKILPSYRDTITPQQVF

T7: MPP7, Q5T2T1
T7 sequence (Q5T2T1 134-230, limits assumed, looked up): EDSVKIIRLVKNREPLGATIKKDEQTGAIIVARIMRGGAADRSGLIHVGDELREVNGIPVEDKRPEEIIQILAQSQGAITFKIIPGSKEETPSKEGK

T8: NHERF3_1, Q5T2W1
T8 sequence (Q5T2W1 4-100, limits assumed, looked up): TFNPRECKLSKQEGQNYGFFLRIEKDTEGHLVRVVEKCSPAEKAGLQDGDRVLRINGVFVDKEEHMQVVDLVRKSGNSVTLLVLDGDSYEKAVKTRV

T9: PDZD2_2, O15018
T9 sequence (O15018 329-429, limits assumed, looked up): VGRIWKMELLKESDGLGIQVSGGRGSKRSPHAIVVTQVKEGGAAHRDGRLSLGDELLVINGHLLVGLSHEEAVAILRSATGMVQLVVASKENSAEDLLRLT

T10: PDZD7_3, Q9H5P4
T10 sequence (Q9H5P4 857-944, limits assumed, looked up): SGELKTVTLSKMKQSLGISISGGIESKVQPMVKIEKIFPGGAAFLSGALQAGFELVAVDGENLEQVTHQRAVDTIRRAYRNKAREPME

T11: RHPN1, Q8TCX5
T11 sequence (Q8TCX5 508-602, limits assumed, looked up): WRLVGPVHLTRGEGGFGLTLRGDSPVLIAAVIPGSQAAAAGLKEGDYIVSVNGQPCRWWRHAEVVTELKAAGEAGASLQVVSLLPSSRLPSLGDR

T12: SYNJ2BP, P57105
T12 sequence (P57105 8-110, limits assumed, looked up): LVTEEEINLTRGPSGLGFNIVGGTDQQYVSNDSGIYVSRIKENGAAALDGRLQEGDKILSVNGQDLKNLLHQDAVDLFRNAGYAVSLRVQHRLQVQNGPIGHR

T13: TJP3_3, O95049
T13 sequence (O95049 375-456, limits assumed, looked up): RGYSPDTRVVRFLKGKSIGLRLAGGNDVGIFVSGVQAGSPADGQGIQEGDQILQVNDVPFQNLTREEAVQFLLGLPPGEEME


Key:
Experiment in all cases: holdup assay
Parameters in all cases: key: below the threshold = too weak to quantify, mostly under pKd 3.1 to 4
Details in all cases: plain residues with an end cap or a label only (N-terminal biotin on a linker: ado-ado)
APBA2_2, Q99767 = biological target: T1, APBA2_2, Q99767
DLG1_1, Q12959 = biological target: DLG1_1, Q12959
DLG4_3, P78352 = biological target: DLG4_3, P78352
Chain of DLG4_3, P78352 (P78352 306-403): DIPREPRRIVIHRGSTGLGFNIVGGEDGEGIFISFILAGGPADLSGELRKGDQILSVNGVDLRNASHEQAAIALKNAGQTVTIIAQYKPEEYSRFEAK

FRMPD2_3, Q68DX3 = biological target: FRMPD2_3, Q68DX3
Chain of FRMPD2_3, Q68DX3 (Q68DX3 1073-1166): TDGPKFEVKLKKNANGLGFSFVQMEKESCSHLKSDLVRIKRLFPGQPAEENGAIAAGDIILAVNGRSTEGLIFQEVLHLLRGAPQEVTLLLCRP

GORASP1, Q9BQQ3 = biological target: GORASP1, Q9BQQ3
Chain of GORASP1, Q9BQQ3 (Q9BQQ3 1-208): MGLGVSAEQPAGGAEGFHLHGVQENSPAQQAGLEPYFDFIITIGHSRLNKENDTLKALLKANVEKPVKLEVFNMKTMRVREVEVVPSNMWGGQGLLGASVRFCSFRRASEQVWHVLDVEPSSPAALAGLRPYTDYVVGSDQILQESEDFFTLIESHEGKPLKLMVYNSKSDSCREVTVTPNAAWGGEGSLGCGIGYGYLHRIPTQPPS

GRIP1_4, Q9Y3R0 = biological target: T2, GRIP1_4, Q9Y3R0
GRIP2_6, Q9C0E4 = biological target: GRIP2_6, Q9C0E4
Chain of GRIP2_6, Q9C0E4 (Q9C0E4 648-740): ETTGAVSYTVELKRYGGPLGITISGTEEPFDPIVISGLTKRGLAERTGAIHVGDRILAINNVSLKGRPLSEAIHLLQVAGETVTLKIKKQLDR

HTRA2, O43464 = biological target: HTRA2, O43464
Chain of HTRA2, O43464 (O43464 355-458): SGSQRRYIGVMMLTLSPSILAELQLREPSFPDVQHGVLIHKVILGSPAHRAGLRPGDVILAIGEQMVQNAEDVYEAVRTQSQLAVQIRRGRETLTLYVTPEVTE

IL16_1, Q14005 = biological target: IL16_1, Q14005
Chain of IL16_1, Q14005 (Q14005 210-306): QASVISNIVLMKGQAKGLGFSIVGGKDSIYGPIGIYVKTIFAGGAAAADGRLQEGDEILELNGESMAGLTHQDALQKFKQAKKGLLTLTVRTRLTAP

LNX1_1, Q8TBB1 = biological target: LNX1_1, Q8TBB1
Chain of LNX1_1, Q8TBB1 (Q8TBB1 261-371): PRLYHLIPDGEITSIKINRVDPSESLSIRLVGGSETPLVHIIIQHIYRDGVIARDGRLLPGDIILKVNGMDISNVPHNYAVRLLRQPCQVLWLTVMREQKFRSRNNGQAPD

LNX1_2, Q8TBB1 = biological target: LNX1_2, Q8TBB1
Chain of LNX1_2, Q8TBB1 (Q8TBB1 371-470): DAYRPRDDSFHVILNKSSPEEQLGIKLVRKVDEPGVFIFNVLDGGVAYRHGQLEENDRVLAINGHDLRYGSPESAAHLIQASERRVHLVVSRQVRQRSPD

LRRC7, Q96NW7 = biological target: T3, LRRC7, Q96NW7
MAGI1_2, Q96QZ7 = biological target: MAGI1_2, Q96QZ7
Chain of MAGI1_2, Q96QZ7 (Q96QZ7 456-580): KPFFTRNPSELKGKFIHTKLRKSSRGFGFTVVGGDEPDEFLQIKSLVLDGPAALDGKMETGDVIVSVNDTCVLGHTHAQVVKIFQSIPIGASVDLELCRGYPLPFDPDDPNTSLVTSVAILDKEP

MAGI2_4, Q86UL8 = biological target: MAGI2_4, Q86UL8
Chain of MAGI2_4, Q86UL8 (Q86UL8 772-865): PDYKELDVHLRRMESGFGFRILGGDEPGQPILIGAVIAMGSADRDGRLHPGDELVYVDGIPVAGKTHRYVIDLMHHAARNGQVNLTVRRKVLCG

MPDZ_5, O75970 = biological target: T4, MPDZ_5, O75970
MPP2, Q14168 = biological target: T5, MPP2, Q14168
MPP6, Q9NZW5 = biological target: T6, MPP6, Q9NZW5
MPP7, Q5T2T1 = biological target: T7, MPP7, Q5T2T1
NHERF3_1, Q5T2W1 = biological target: T8, NHERF3_1, Q5T2W1
PDZD2_2, O15018 = biological target: T9, PDZD2_2, O15018
PDZD7_3, Q9H5P4 = biological target: T10, PDZD7_3, Q9H5P4
RHPN1, Q8TCX5 = biological target: T11, RHPN1, Q8TCX5
SCRIB_2, Q14160 = biological target: SCRIB_2, Q14160
Chain of SCRIB_2, Q14160 (Q14160 857-960): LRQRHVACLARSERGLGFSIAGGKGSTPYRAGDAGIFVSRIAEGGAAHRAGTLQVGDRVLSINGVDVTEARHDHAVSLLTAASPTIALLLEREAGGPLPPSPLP

SYNJ2BP, P57105 = biological target: T12, SYNJ2BP, P57105
TJP3_3, O95049 = biological target: T13, TJP3_3, O95049

| Binder | pKd (APBA2_2, Q99767) | pKd (DLG1_1, Q12959) | pKd (DLG4_3, P78352) | pKd (FRMPD2_3, Q68DX3) | pKd (GORASP1, Q9BQQ3) | pKd (GRIP1_4, Q9Y3R0) | pKd (GRIP2_6, Q9C0E4) | pKd (HTRA2, O43464) | pKd (IL16_1, Q14005) | pKd (LNX1_1, Q8TBB1) | pKd (LNX1_2, Q8TBB1) | pKd (LRRC7, Q96NW7) | pKd (MAGI1_2, Q96QZ7) | pKd (MAGI2_4, Q86UL8) | pKd (MPDZ_5, O75970) | pKd (MPP2, Q14168) | pKd (MPP6, Q9NZW5) | pKd (MPP7, Q5T2T1) | pKd (NHERF3_1, Q5T2W1) | pKd (PDZD2_2, O15018) | also measured |
| --- | --- | --- | --- | --- | --- | --- | --- | --- | --- | --- | --- | --- | --- | --- | --- | --- | --- | --- | --- | --- | --- |
| LESTTVGTSV [KARS1, Q15046] | below the threshold | 4.27 | 3.58 | below the threshold | below the threshold | below the threshold | below the threshold | below the threshold | 3.79 | 3.97 | below the threshold | below the threshold | below the threshold | 4.31 | below the threshold | below the threshold | below the threshold | below the threshold | 4.13 | 4.87 | pKd (PDZD7_3, Q9H5P4): 3.82; pKd (RHPN1, Q8TCX5): 4.07; pKd (SCRIB_2, Q14160): 4.46; pKd (SYNJ2BP, P57105): 5.44; pKd (TJP3_3, O95049): below the threshold |
| ILRKSTTTTV [PRR16, Q569H4] | below the threshold | 4.76 | 4.12 | below the threshold | 4.19 | below the threshold | below the threshold | below the threshold | below the threshold | below the threshold | 3.8 | below the threshold | 4.76 | 4.14 | below the threshold | below the threshold | below the threshold | below the threshold | below the threshold | 4.18 | pKd (PDZD7_3, Q9H5P4): 4.67; pKd (RHPN1, Q8TCX5): 4.01; pKd (SCRIB_2, Q14160): below the threshold; pKd (SYNJ2BP, P57105): 4.2; pKd (TJP3_3, O95049): below the threshold |
| MQHQRTHTRV [ZSCAN30, Q86W11] | below the threshold | 4.41 | 4.22 | 3.5 | 4.1 | below the threshold | below the threshold | below the threshold | below the threshold | 3.49 | 3.58 | below the threshold | 4.87 | 3.49 | below the threshold | below the threshold | below the threshold | below the threshold | 4 | 3.95 | pKd (PDZD7_3, Q9H5P4): 4.37; pKd (RHPN1, Q8TCX5): 3.72; pKd (SCRIB_2, Q14160): 3.79; pKd (SYNJ2BP, P57105): 4.28; pKd (TJP3_3, O95049): below the threshold |
| VKRNSKETVV [MARCHF3, Q86UD3] | below the threshold | 5.48 | 4.94 | below the threshold | 4.09 | below the threshold | below the threshold | below the threshold | 3.94 | below the threshold | 3.68 | 3.79 | 4.6 | 4.21 | below the threshold | below the threshold | below the threshold | below the threshold | below the threshold | 4.17 | pKd (PDZD7_3, Q9H5P4): 4.82; pKd (RHPN1, Q8TCX5): 4.07; pKd (SCRIB_2, Q14160): 3.89; pKd (SYNJ2BP, P57105): 4.76; pKd (TJP3_3, O95049): below the threshold |
| RQKEVRESKC [SCN8A, Q9UQD0] | below the threshold | below the threshold | 4.6 | below the threshold | below the threshold | below the threshold | below the threshold | below the threshold | 3.7 | below the threshold | below the threshold | below the threshold | 3.67 | below the threshold | below the threshold | below the threshold | below the threshold | below the threshold | 4.71 | 3.94 | pKd (PDZD7_3, Q9H5P4): 3.85; pKd (RHPN1, Q8TCX5): below the threshold; pKd (SCRIB_2, Q14160): 3.82; pKd (SYNJ2BP, P57105): 4.23; pKd (TJP3_3, O95049): below the threshold |
| NIAESLESLV [PTPRZ1, P23471] | below the threshold | 4.57 | below the threshold | below the threshold | below the threshold | below the threshold | below the threshold | below the threshold | 4.6 | 4.36 | below the threshold | 3.76 | 3.81 | 4.45 | below the threshold | below the threshold | below the threshold | below the threshold | 4.59 | 5.37 | pKd (PDZD7_3, Q9H5P4): 4.7; pKd (RHPN1, Q8TCX5): 4.6; pKd (SCRIB_2, Q14160): 3.66; pKd (SYNJ2BP, P57105): 4.83; pKd (TJP3_3, O95049): below the threshold |
